Experimental data: patent US8399206B2, “Methods for diagnosis, prognosis and methods of treatment” (Nodality, Inc., priority 2008, dated 2013)

B1: FLT-3L: fms-like tyrosine kinase receptor-3 ligand (protein, UniProt P49771 27-235, looked up)
Fms-related tyrosine kinase 3 …: TQDCSFQHSPISSDFAVKIRELSDYLLQDYPVTVASNLQDEELCGGLWRLVLAQRWMERLKTVAGSKMQGLLERVNTEIHFVTKCAFQPPPSCLRFVQTNISRLLQETSEQLVALKPWITRQNFSRCLELQCQPDSSTLPPPWSPRPLEATAPTAPQPPLLLLLLLPVGLLLLAAAWCLHWQRTRRRTPRPGEQVPPVPSPQDLLLVEH
B2: IL-27: interleukin-27 (protein, UniProt Q8NEV9 29-243; Q14213 21-229, looked up)
Interleukin-27 subunit alpha: FPRPPGRPQLSLQELRREFTVSLHLARKLLSEVRGQAHRFAESHLPGVNLYLLPLGEQLPDVSLTFQAWRRLSDPERLCFISTTLQPFHALLGGLGTQGRWTNMERMQLWAMRLDLRDLQRHLRFQVLAAGFNLPEEEEEEEEEEEEERKGLLPGALGSALQGPAQVSWPQLLSTYRLLHSLELVLSRAVRELLLLSKAGHSVWPLGFPTLSPQP
Interleukin-27 subunit beta: RKGPPAALTLPRVQCRASRYPIAVDCSWTLPPAPNSTSPVSFIATYRLGMAARGHSWPCLQQTPTSTSCTITDVQLFSMAPYVLNVTAVHPWGSSSSFVPFITEHIIKPDPPEGVRLSPLAERQLQVQWEPPGSWPFPEIFSLKYWIRYKRQGAARFHRVGPIEATSFILRAVRPRARYYVQVAAQDLTDYGELSDWSLPATATMSLGK

Experiments:
[1] = test system: healthy bone marrow myeloblast (BMMC); assay: FLT3L-induced signaling in healthy control BMMC myeloblasts (Example 9); format: cell-based, human; conditions: BMMC samples
Excerpt: This example identifies intracellular signaling pathways associated with FLT3 ITD in two independent cohorts of diagnostic AML samples that serve as an improvement over current clinical tools in the identification of clinically meaningful altered FLT 3 and has implications for cohort selection in the development of FLT3 inhibitors. The two cohorts of data were further analyzed to investigate the differences in signaling between FLT-WT and FLT-ITD samples. The first cohort of data (“study 1”) comprised the 34 samples from University Health Network outlined in Table 16 and Table 19. The second cohort of data (“study 2”) comprised an 83 sample subset of MD Anderson Cancer Center data outlined in Table 16 (and Table 19). The 83 sample subset was selected based on known FLT3 mutation status. Both cohorts of data were used to investigate differences in FLT3 signaling between leukemic blasts and control data.
In order to further characterize wild-type FLT receptor signaling in AML, we compared FLT3L-induced signaling in the myeloblast population of control BMMC samples with FLT3L-induced signaling in the leukemic blast population of FLT3-WT AML samples.

AML myeloblasts (BMMC) = assay: SCNP of paired diagnosis and relapse AML BMMC and independent diagnostic set (Example 5); format: cell-based, human; conditions: paired diagnosis samples of Patients 1 and 2
Excerpt: All AML bone marrow mononuclear cells (BMMC) were derived from the bone marrow (BM) of AML patients treated at MD Anderson Cancer Center (MDACC) between September 1999 and September 2006. Clinical data were de-identified in compliance with Health Insurance Portability and Accountability Act regulations. Patient/sample inclusion criteria required a diagnosis of French-American-British (FAB) classification of M0 through M7 AML (excluding M3) AML, collection prior to therapy initiation and at least 50% viability upon sample thaw. For the identification of chemoresistant signaling profiles, two longitudinally paired BMMC samples at diagnosis (collection prior to the initiation of induction chemotherapy) and first relapse, were examined. An independent test set comprised of 47 BMMC samples collected at diagnosis from AML patients with a disease response of CR after high dose cytarabine based chemotherapy was used to assess the ability of the identified signaling profiles to predict disease relapse. Healthy, unstimulated BMMC (n=2) were purchased from a commercial source (All Cells) to serve as a control. All samples underwent fractionation over Ficoll-Hypaque prior to cryopreservation with 90% fetal bovine serum and 10% dimethyl sulfoxide and storage in liquid nitrogen.
The SCNP assay measured response to growth factors and cytokines involved in hematopoietic progenitor or myeloid biology (SCF, FLT3L, G-CSF, IL-27), drug transporter (ABCG2, MRP-1) and chemokine receptors (CXCR4) associated with adverse disease prognosis in AML, and the c-Kit growth factor receptor for SCF. The SCF and FLT3L-mediated PI3K/Akt and MAPK pathway is important for maintaining the hematopoietic stem cell pool; G-CSF-mediated Jak/STAT pathway activation is important for neutrophilic differentiation of hematopoietic progenitor cells; interleukin (IL)-27 mediated Jak/STAT pathway activation is important in regulating proliferation and differentiation of hematopoietic stem cells; CXCR4 expression is associated with disease relapse and decreased survival; and drug transporter expression levels (i.e. ABCG2 and MRP-1) are known to be associated with adverse prognosis in AML. All together, approximately 20 signaling nodes were evaluated in each sample.
SCNP assays were performed as described previously. Cryopreserved samples were thawed at 37° C. and washed once in warm PBS containing 10% FBS (HyClone, Waltham, Mass., USA) and 2 mM EDTA. […] The cells were re-suspended in RPMI containing 1% FBS, aliquoted to 100,000 cells/condition and rested for 1-2 hours at 37° C. […]

Molecule | FLT3L activation of p-Akt and p-S6 at later time point [1] | range of FLT3L-induced S6 signaling [1] | FLT3L-induced p-Akt and p-S6 ([1]; early time points (4 minutes, 10 minutes)) | responsive cells in diagnostic AML bone marrow samples (AML myeloblasts (BMMC)) [%] | responsive subpopulation in diagnosis samples (AML myeloblasts (BMMC))
B1 | largely diminished by 15 minutes | narrow range of S6 signaling | increased levels of p-Akt and p-S6 | ~1 | –
B2 | – | – | – | – | no IL-27 responsive subpopulation was identified
